The target of data set [1] is T1, DdrC (Deinococcus radiodurans R1 ATCC 13939, UniProt Q9RYE6 1-231).
T1 sequence: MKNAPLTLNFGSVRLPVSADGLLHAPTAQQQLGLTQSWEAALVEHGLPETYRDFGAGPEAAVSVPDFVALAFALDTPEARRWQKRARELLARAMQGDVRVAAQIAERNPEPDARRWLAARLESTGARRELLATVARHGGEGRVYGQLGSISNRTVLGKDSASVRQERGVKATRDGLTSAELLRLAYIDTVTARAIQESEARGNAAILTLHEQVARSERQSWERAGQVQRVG
Nature of the data set: EMSA; same efficiency as 65.4% GC 81-mer; DdrC 0.175-2.8 uM; Buffer A: 40 mM Tris-HCl pH 7.8, 5 mM MgCl2, 1.5 mM DTT, 50 mM NaCl, 12% glycerol; 4 C (15 min stated for plasmid/viral DNA); gels run at 4 C. The following applies: protein: recombinant; tags: C-terminal 6xHis (pET26b); label: 5' Cy5. A general note: A gel shift assay detects complexes by their altered migration in electrophoresis.

The target of data set [2] is T1, DdrC. In words: EMSA; discrete complex band appears at 40 nM DdrC; 3.3 nM DNA; Buffer A: 40 mM Tris-HCl pH 7.8, 5 mM MgCl2, 1.5 mM DTT, 50 mM NaCl, 12% glycerol; 4 C (15 min stated for plasmid/viral DNA); gels run at 4 C. The following applies: protein: recombinant; tags: C-terminal 6xHis (pET26b).
The target in data set [3] is T1, DdrC. Nature of the data set: EMSA; same efficiency as 37% GC 81-mer; DdrC 0.175-2.8 uM; Buffer A: 40 mM Tris-HCl pH 7.8, 5 mM MgCl2, 1.5 mM DTT, 50 mM NaCl, 12% glycerol; 4 C (15 min stated for plasmid/viral DNA); gels run at 4 C. The following applies: protein: recombinant; tags: C-terminal 6xHis (pET26b); label: 5' Cy5.

B1: 81-mer 37% GC (ssDNA)
DNA: GATTACCACGAGGAGTATCTTAAGAATTCTGATATACTTGAAGAAGACATACAGGAACAAGAACAAAGACTGAACGAGCTT
For B1, the binding result with DdrC [1] is listed as “binds”.

B2: oligo-67 ss (ssDNA)
DNA: CTGTTTAAGAAATTCACCTCGAAAGCAAGCTGATAAACCGATACAATTAAAGGCTCCTTTTGGAGCC
As for B2, the binding result with DdrC [2] was “binds”.

B3: 81-mer 65.4% GC (ssDNA)
DNA: GTTGCTGGACGTACAGCGCCACTATGGCCGCCTGGGCTGGACCAGCGGCGAGATTCCGTCCGGGGGCTACCAGTTTCCCAT
On to B3, for which, in the data set with DdrC [3], the binding result is listed as “binds”.

For the origin of these results see article PMC5436757, “In vivo and in vitro characterization of DdrC, a DNA damage response protein in Deinococcus radiodurans bacterium”.
